Test results from US20240409645A1 (DUALYX, published 2024).
Numbering of substitutions follows the chain as printed. One block for each binder: values may come before it.

Columns and labels:
[1] = target: T1, human IL-2Rα (human, UniProt P01589 22-240, limits assumed); experiment: ELISA, P.E. on coated antigen
T1 construct: recombinant protein; also called hu IL-2R; human IL-2Ra
T1 sequence: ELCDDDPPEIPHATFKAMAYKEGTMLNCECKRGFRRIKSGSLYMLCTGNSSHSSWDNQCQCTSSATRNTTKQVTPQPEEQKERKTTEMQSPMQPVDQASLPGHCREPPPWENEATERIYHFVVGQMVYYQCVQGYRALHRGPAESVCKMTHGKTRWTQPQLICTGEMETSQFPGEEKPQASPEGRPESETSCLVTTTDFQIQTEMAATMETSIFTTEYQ
Procedure: (§1) In a binding ELISA, human or mouse IL-2Rα, IL-2Rβ and IL-2Rγ proteins were coated directly on maxisorp microtiter plates overnight at 4° C. Free binding sites were blocked using 4% Marvel in PBS for 1 hour. Next, 1:5 dilution of P.E. in 1% Marvel/PBS were added to wells and incubated for 1 hour. […] Binding specificity was determined based on O.D. at 450 nm values compared to negative controls.

[2] = target: T1, human IL-2Rα; experiment: SPR, P.E. on immobilised antigen
Procedure: (§2) SPR was performed to determine dissociation rates using Biacore 3000 instrument (GE Healthcare). Briefly, human and mouse IL-2R proteins were immobilized on carboxylmethyl dextran sensor chip (CM5) at approximately 2500 RUs using amine coupling in acetate buffer (GE Healthcare). The VHH-containing P.E. were loaded with a flow rate of 30 uL/min and the off-rates were measured over a 120s period.

[3] = target: T2, mouse common cytokine receptor γ-chain (IL-2Rγ) (mouse, UniProt P34902 23-263, limits assumed); experiment: P.E. off-rate SPR
T2 construct: Recombinant mouse IL-2Rγ protein; also called mo IL-2R; mouse IL-2R gamma
T2 sequence (looked up): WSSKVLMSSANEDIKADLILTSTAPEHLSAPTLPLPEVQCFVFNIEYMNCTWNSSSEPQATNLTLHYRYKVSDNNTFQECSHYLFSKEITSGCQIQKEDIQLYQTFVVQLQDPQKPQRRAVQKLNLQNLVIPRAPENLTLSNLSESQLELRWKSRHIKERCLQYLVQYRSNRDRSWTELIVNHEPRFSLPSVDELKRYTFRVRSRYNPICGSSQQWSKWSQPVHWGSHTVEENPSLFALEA
Procedure: as §2

[4] = target: T3, human common cytokine receptor γ-chain (IL-2Rγ) (human, UniProt P31785 23-262, limits assumed); experiment: P.E. off-rate SPR
T3 construct: Recombinant human IL-2Rγ protein, coated (ELISA) or amine-coupled to a CM5 chip (SPR); also called hu IL-2R; CD132
T3 sequence: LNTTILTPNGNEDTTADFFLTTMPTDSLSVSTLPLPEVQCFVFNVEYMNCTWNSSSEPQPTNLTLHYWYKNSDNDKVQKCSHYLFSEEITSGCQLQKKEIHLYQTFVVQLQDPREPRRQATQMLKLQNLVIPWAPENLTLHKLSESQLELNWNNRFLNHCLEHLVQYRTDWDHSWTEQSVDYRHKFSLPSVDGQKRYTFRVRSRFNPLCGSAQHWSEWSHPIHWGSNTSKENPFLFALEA
Procedure: as §2

[5] = target: T2, mouse common cytokine receptor γ-chain …; experiment: P.E. binding ELISA
Procedure: as §1

[6] = target: T3, human common cytokine receptor γ-chain …; experiment: P.E. binding ELISA
Procedure: as §1

B1: FJ1427_P035MP05E11 (VHH)
VHH: EVQLVESGGGSVQAGGSLRLSCAASGRTLYSSYGMAWFRQAPGKERDFVGSISRYGTYTSYADSVKDRFTISRDNAKSTVYLQMNNTKPEDTAVYYCAAYTYSGSFYSTVKTHRDEYQYWGQGTQVTVSS
notes: periplasmic extract; also called clone nr
- OD (PE binding ELISA) [1]: 2.35 OD450 nm
- koff [2]: 0.001 s⁻¹

B2: FJ1427_P035MP05C04 (VHH)
VHH: B1 VHH with A23E, Y30F, A36G, D47E, S51A, Y55F, S64P, R114H, Q118R
notes: periplasmic extract; also called clone nr; 411
- OD (PE binding ELISA) [1]: 1.83 OD450 nm
- koff [2]: 0.000905 s⁻¹

B4: FJ1427_P035MP05E03 (VHH)
VHH: B1 VHH with S11L
notes: as for B1
- OD (PE binding ELISA) [1]: 2.48 OD450 nm
- koff [2]: 0.000772 s⁻¹

B5: FJ1427_P035MP05C07 (VHH)
VHH: B1 VHH with E1Q, A23E, Y30F, A36G, D47E, S51A, Y55F, S64P, R114H, Q118R
notes: periplasmic extract; also called 92-MP05C07
- OD (PE binding ELISA) [1]: 1.73 OD450 nm
- koff [2]: 0.00141 s⁻¹

B6: FJ1427_P035MP05E08 (VHH)
VHH: EVQLVESGGGSVQAGGSLRLSCEASGPTLFSSYGMGWFRQAPGKKEREFVGAISRYGTYTSYADPVKDRFTISRDNAKSTVYLQMNNTKPEDTAVYYCAAYTYSGSFYSTVKTHHDEYHYWGQGTQVTVSS
notes: as for B1
- OD (PE binding ELISA) [1]: 2.33 OD450 nm
- koff [2]: 0.000214 s⁻¹

B7: FJ1427_P035MP05D11 (VHH)
VHH: B6 VHH with E1Q, F70L, D75G
notes: as for B1
- OD (PE binding ELISA) [1]: 2.54 OD450 nm
- koff [2]: 0.000662 s⁻¹

B8: FJ1427_P035MP07F01 (VHH)
VHH: QVQLVESGGGLVQAGGSLRLSCAASGRTLSRYAMGWFRQAPGKEREFVTANSWGGDTYYADSVQGRFTFSRDNAKNTVYLQMNSLQPEDTAVYYCAAAPTSFATTAYSSSNSYAYWGQGTQVTVSS
notes: tested as periplasmic extract; also called Clone nr
- koff [3]: 0.0855 s⁻¹
- koff [4]: 0.00297 s⁻¹
- PE binding ELISA OD [5]: 0.047 OD450 nm
- PE binding ELISA OD [6]: 0.556 OD450 nm

B11: FJ1427_P035MP07A02 (VHH)
VHH: B8 VHH with T28A, Y32L, T49V, N51S, G55D, Y58F, Q64K, E88G, V124A
notes: as for B8
- koff [3]: 0.0116 s⁻¹
- koff [4]: 0.00176 s⁻¹
- PE binding ELISA OD [5]: 0.063 OD450 nm
- PE binding ELISA OD [6]: 0.829 OD450 nm

B12: FJ1427_P035MP07A05 (VHH)
VHH: B8 VHH with Q1E
notes: as for B8
- koff [3]: 0.127 s⁻¹
- koff [4]: 0.00323 s⁻¹
- PE binding ELISA OD [5]: 0.046 OD450 nm
- PE binding ELISA OD [6]: 0.973 OD450 nm

B16: FJ1427_P035MP07A06 (VHH)
VHH: B8 VHH with A14P
notes: as for B8
- koff [3]: 0.109 s⁻¹
- koff [4]: 0.00273 s⁻¹
- PE binding ELISA OD [5]: 0.047 OD450 nm
- PE binding ELISA OD [6]: 1.12 OD450 nm

B17: FJ1427_P035MP07H09 (VHH)
VHH: B8 VHH with T49A, A60T, Q64E, T77A, A114T
notes: as for B8
- koff [4]: 0.00346 s⁻¹
- PE binding ELISA OD [6]: 1.11 OD450 nm

B18: FJ1427_P035MP07F08 (VHH)
VHH: B8 VHH with Y32D, T49A, N51D, Y58F, Q64E, T77A, A97G, A114R
notes: tested as periplasmic extract; also called Clone nr; 638
- koff [4]: 0.00185 s⁻¹
- PE binding ELISA OD [6]: 1.24 OD450 nm

B19: FJ1427_P035MP07F03 (VHH)
VHH: B8 VHH with A14T
notes: as for B8
- koff [4]: 0.00321 s⁻¹
- PE binding ELISA OD [6]: 0.497 OD450 nm

B23: FJ1427_P035MP07A09 (VHH)
VHH: B8 VHH with T28A, Y32L, T49V, N51S, G55D, Y58F, Q64K, E88G
notes: as for B8
- koff [3]: 0.0119 s⁻¹
- koff [4]: 0.00161 s⁻¹
- PE binding ELISA OD [5]: 0.055 OD450 nm
- PE binding ELISA OD [6]: 0.518 OD450 nm

B25: FJ1427_P035MP05B07 (VHH)
VHH: QLQLVESGGGLVQAGGSLRLSCAASGLTFDGYAIGWFRQASGKEREGVSYINGRDGSTFYADSVKGRFIISSDNAKNTVDLQMNSLKPDDAAVYYCAVDRLGSRGAYVSSWWRSPDMDLWGKGTLVTVSS
notes: as for B1
- OD (PE binding ELISA) [1]: 1.77 OD450 nm
- koff [2]: 0.00195 s⁻¹

B27: FJ1427_P035MP05H02 (VHH)
VHH: EVQLVESGGGLVQAGGSLRLSCAASGITFNDHTMAWFRQAPGKEREFVAARDWSDIITRYAGSVKGRFTISRDNAGNTGFLQMNSLRPEDTAVYYCAAREGGVVAGVRSGAPYDYWGQGTQVTVSS
notes: periplasmic extract; also called clone nr; 400
- OD (PE binding ELISA) [1]: 2.29 OD450 nm
- koff [2]: 0.000141 s⁻¹

B30: FJ1427_P035MP05H01 (VHH)
VHH: B27 VHH with G62S
notes: as for B1
- OD (PE binding ELISA) [1]: 2.62 OD450 nm
- koff [2]: 0.000141 s⁻¹

B31: FJ1427_P035MP04F12 (VHH)
VHH: QVQLQESGGGWVQVGESLRLSCVPSGRTFVSGIMGWFRQAPGKEREFVARIILNNNSTRYTDSVKGRFTISRDSAKNTMYLQMNTLRPEDTAVYYCAARDRYGSGNSLSPSAYDYWGQGTQVTVSS
notes: as for B8
- koff [4]: 0.00714 s⁻¹
- PE binding ELISA OD [6]: 2.02 OD450 nm

Continued, values first:

- OD (PE binding ELISA) [1]: 2.43 OD450 nm
- koff [2]: 0.00104 s⁻¹
B3: FJ1427_P035MP05A07 (VHH)
VHH: B1 VHH with E1Q, S11L, V12A, G16A, D67G
notes: as for B1

- koff [4]: 0.00243 s⁻¹
- PE binding ELISA OD [6]: 0.792 OD450 nm
B9: FJ1427_P035MP07D04 (VHH)
VHH: B8 VHH with Q1E, A40G, T49A, N51D, A60D, Q64E, N73I, A74T, T77A
notes: as for B8

- koff [4]: 0.00225 s⁻¹
- PE binding ELISA OD [6]: 0.359 OD450 nm
B10: FJ1427_P035MP07E07 (VHH)
VHH: B8 VHH with Q1E, K43S, T49A, N51S, Y58F, Q64E, T77A, V92A, A103P
notes: as for B8

- koff [4]: 0.00151 s⁻¹
- PE binding ELISA OD [6]: 0.478 OD450 nm
B13: FJ1427_P035MP07A01 (VHH)
VHH: B8 VHH with Q1E, G16D
notes: as for B8

- koff [4]: 0.0024 s⁻¹
- PE binding ELISA OD [6]: 1.14 OD450 nm
B14: FJ1427_P035MP07G09 (VHH)
VHH: QVQLQESGGGLVQAGGSLRLSCAASGRTLSRVAMGWFRQAPGKEREFVAADSWGGDTFYADSVEGRFTFSRDNAKNAVYLQMNSLQPEDTAVYFCAGAPASFATTAYSSSNSYSYWGQGTQVTVSS
notes: tested as periplasmic extract; also called Clone nr; 647

- koff [4]: 0.00267 s⁻¹
- PE binding ELISA OD [6]: 0.406 OD450 nm
B15: FJ1427_P035MP07C04 (VHH)
VHH: B8 VHH with L11V
notes: as for B8

- koff [4]: 0.00126 s⁻¹
- PE binding ELISA OD [6]: 0.507 OD450 nm
B20: FJ1427_P035MP07A04 (VHH)
VHH: B8 VHH with A40G, T49A, N51D, A60D, Q64E, N73I, A74T, T77A
notes: as for B8

- koff [3]: 0.00795 s⁻¹
- koff [4]: 0.00174 s⁻¹
- PE binding ELISA OD [5]: 0.869 OD450 nm
- PE binding ELISA OD [6]: 1.69 OD450 nm
B21: FJ1427_P035MP07A03 (VHH)
VHH: B14 VHH with Q1E, Q5V, V32Y, F47Y, A50I, A77E, F94Y, A100T, S114R
notes: as for B8

- koff [4]: 0.00235 s⁻¹
- PE binding ELISA OD [6]: 0.518 OD450 nm
B22: FJ1427_P035MP07B01 (VHH)
VHH: B8 VHH with S70T
notes: as for B8

- koff [4]: 0.00242 s⁻¹
- PE binding ELISA OD [6]: 0.759 OD450 nm
B24: FJ1427_P035MP07A10 (VHH)
VHH: B8 VHH with K43S, T49A, N51S, Y58F, Q64E, T77A, V92A, A103P
notes: as for B8

- OD (PE binding ELISA) [1]: 2.67 OD450 nm
- koff [2]: 0.00011 s⁻¹
B26: FJ1427_P035MP01F12 (VHH)
VHH: B27 VHH with R19G, G62S, S126P
notes: periplasmic extract; also called clone nr; 94

- OD (PE binding ELISA) [1]: 2.42 OD450 nm
- koff [2]: 0.000131 s⁻¹
B28: FJ1427_P035MP05B03 (VHH)
VHH: B27 VHH with E1Q, V5Q, A14P, G62S
notes: as for B1

- OD (PE binding ELISA) [1]: 2.73 OD450 nm
- koff [2]: 0.000123 s⁻¹
B29: FJ1427_P035MP01G11 (VHH)
VHH: B27 VHH with E1Q, G62S, Q118R
notes: periplasmic extract; also called clone nr; 87

- koff [4]: 0.0186 s⁻¹
- PE binding ELISA OD [6]: 0.48 OD450 nm
B32: FJ1427_P035MP07C02 (VHH)
VHH: B31 VHH with Q1E, Q5V, V23A, A40T
notes: tested as periplasmic extract; also called Clone nr; 587
